Experimental data from US20260207798A1, “CYCLIC PEPTIDES AS PET IMAGING AGENTS OF GRANZYME B” (priority 2022, published 2026).
Each block holds one molecule with its values, some of them ahead of it. Numbered stars: 1 amine (or outer) side, 2 acyl side, 3 side chain; on linkers, the order of the positions; unused ones are H or OH. Bridge positions count the residues as written; N and C are the ends. Square brackets hold non-standard residues; d marks the D form. Peptide text beside a SMILES is read from it. I, II: the chains in the order shown. Pro(trans-4-F) = O=C(O)[C@@H]1C[C@@H](F)CN1; Phe(4-F) = N[C@@H](Cc1ccc(F)cc1)C(=O)O; Pro(4S-Me) = C[C@@H]1CN[C@H](C(=O)O)C1; X2 = O=C(CCOCCOCCC(=O)[*:2])[*:1]

How the values were obtained:
[1] = target: human Granzyme B (hGranzyme B) (Homo sapiens, UniProt P10144); experiment: Surface plasmon resonance (SPR) binding kinetics to hGranzyme B; details: 25° C., 1:1 binding model, KD=kd/ka; read-out: Granzyme B SPR Kd
Method in brief: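 Biotinylated hGranzyme B captured on streptavidin chip (~1100 RU), reference-spot subtracted. Single-cycle kinetics at 25 °C in HBS-EP+ with 2% DMSO: five 3-fold peptide concentrations, 0.01–1 µM, 120 s association, 900 s dissociation. Fit to a 1:1 model for ka and kd, with KD = kd/ka.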

Human Granzyme B [2] = target: T1, Human Granzyme B (Homo sapiens, UniProt P10144); experiment: Granzyme B biochemical inhibition assay (fluorescence); details: 8 nM granzyme B; values below 8 nM reported as <8 nM
Experimental: Compounds to be tested as inhibitors were manually prepared in a 2-fold serial dilutions in DMSO, spanning 200 uM to 0.39 uM in a Labcyte Echo qualified low dead volume 384-well plate. Then an ECHO acoustic liquid handler was used to dispense 125 nL of each compound from 384-well plate into a PerkinElmer Proxiplate-384 Plus F assay plate. For the positive control of inhibitor, (S)-3-((3S,6S)-3-((2S,3S)-2-acetamido-3-methylpentanamido)-4-oxo-1,2,3,4,6,7-hexahydroazepino[3,2,1-hi]indole-6-carboxamido)-4-oxobutanoic acid (see C. A. Willoughby et al./Bioorg. Med. Chem. Lett. 12 (2002) 2197-2200 2199) was used at 2 uM assay concentration. For no inhibition control, DMSO was used. Each compound was run in duplicate.
Once the compounds were dispensed in the plates, enzyme mix and substrate mix were prepared. Enzyme mix was prepared by preparing a mixture of 300 uL granzyme B (final concentration 8 nM) and 10.8 mL of assay buffer (from Sigma kit). Substrate mix was prepared by combining 500 uL substrate (from Sigma kit) and 3 mL of assay buffer (from Sigma kit). Enzyme mixture was loaded on BioRaptr and 9.25 uL were added to each well of the assay plate containing compounds. The plate was incubated at room temperature under a metal gasket cover for 30 minutes. Subsequently, 3.125 uL of substrate mix were added to each well using the BioRaptr, reaching a final assay volume of 12.5 uL, and the plate was monitored using a Pherastar FS by 1 read per minute for 30 minutes in fluorescence mode, excitation wavelength is 400 nm and emission wavelength is 510 nm.
The data analysis was performed first in excel, where the slopes of the measured fluorescence from each sample were determined using MARS software from BMG LABTECH. These rates were then multiplied by 10,000 for visualization purposes. The rates, multiplied by 10,000, were normalized to 0% and 100% activity based on the average values of the samples with either 2 uM inhibitor (S)-3-((3S,6S)-3-((2S,3S)-2-acetamido-3-methylpentanamido)-4-oxo-1,2,3,4,6,7-hexahydroazepino[3,2,1-hi]indole-6-carboxamido)-4-oxobutanoic acid, or no inhibitor respectively. All samples were then normalized against these values using the formula={100−[(sample−100% inhib)/0% inhib]}*100 to achieve a normalized percent inhibition. Normalized percent inhibition versus concentration inhibitor was then plotted in Graphpad Prism version 9.0.0 and a variable slope (four parameters) fit was calculated for each inhibitor.

[3] = rhesus monkey, in vivo
Experimental: Healthy non-human primate: A 3 h dynamic PET/CT scan was performed in a healthy male rhesus monkey to determine whole body biodistribution and clearance properties in an additional species. Approximately 6 mCi of ^18F-labeled anti-granzyme-B peptide was intravenously injected in the animal. Attenuation correction was performed using low-dose CT scan. Regions of interests (ROI) were manually drawn over tissues of interest to determine mean standardized uptake value (SUVmean).

Human Granzyme B [4] = target: T1, Human Granzyme B; assay type: in vivo; parameters: Ten million human peripheral blood mononuclear cell (PBMC) were engrafted in immunocompromised NOG (NOD/Shi-scid/IL-2Rγ) mice; endogenous in cells; host or cells: human PBMC (donor-derived) engrafted in NOG mice
Experimental: Diseased model: Graft versus host disease (GvHD) model was selected to evaluate radiolabeled granzyme-B peptides due to presence of human granzyme-B after onset of disease. Ten million human peripheral blood mononuclear cell (PBMC) were engrafted in immunocompromised NOG (NOD/Shi-scid/IL-2Rγ) mice. Body weight was monitored routinely, once the mice started to lose weight (indication of onset of disease), PET/CT scans were performed. To determine target specificity, NOG mice without human PBMC were used as control. […] Mice were intravenously injected with approximately 150 uCi (35 Ci/mmol) of ^18F-labeled peptides and 45-minute whole body static PET/CT scans were performed 1 h after injection. Attenuation correction was performed using low-dose CT scan.

human Granzyme B [5] = target: T2, human Granzyme B (human, UniProt P10144 21-247); experiment: SPR, Biacore 8k+, hGranzyme B captured on SA chip, single cycle kinetics, 1:1 model; Compound 38a, observed m/z 914.7
T2 construct: Captured on a Series S Streptavidin chip for SPR; also called hGranzyme B; GzmB
Experimental: (§1) The kinetics of test peptide binding to human Granzyme B (hGranzyme B) was determined by SPR. All experiments were performed at 25° C. using the Biacore 8k+ instrument (Cytiva, Marlborough, MA). The Biacore 8k+ Insight Evaluation Software Version 3.0 was used to fit the data with a 1:1 binding model to determine the association rate constant kₐ (M⁻¹s⁻¹, where “M” ~equals molar and “s” ~equals seconds) and the dissociation rate constant kd (s⁻¹). These rate constants were used to calculate the equilibrium dissociation constant. KD (M)=kd/kₐ.
(§2) To measure the binding kinetics of peptides of interest, surfaces were prepared by a capture method to a Series S Streptavidin (SA) chip using a 1×HBS-EP+ running buffer (Cytiva). hGranzyme B was diluted to 10 μg/mL in IX HBS-EP+ and flowed over spot 2 of each flow cell on the chip at a flow rate of 10 ul/min for 20 s to achieve a level of capture of ~1100 RU. […] Binding kinetics were measured using single cycle kinetics at 25° C. by injecting 5 concentrations with 3-fold serial dilutions of test peptides from 0.01 μM to 1 μM. […]
(§3) Peptide dilution series included 2 zero concentration points (no compound) which were averaged and subtracted from the peptide concentration injection as DMSO control responses. […] Corrected response data were analyzed using the Biacore 8k+ Evaluation Software Version 3.0 according to the manufacturer. […]

human Granzyme B [6] = target: T2, human Granzyme B; experiment: cell-based or functional assay
human Granzyme B [7] = target: T2, human Granzyme B; experiment: SPR, Biacore 8k+, hGranzyme B captured on SA chip, single cycle kinetics, 1:1 model; Compound 40a, observed m/z 915.0
Experimental: as §1, §2, §3

human Granzyme B [8] = target: T2, human Granzyme B; experiment: SPR, Biacore 8k+, hGranzyme B captured on SA chip, single cycle kinetics, 1:1 model; Compound 25a, observed m/z 905.8
Experimental: as §1, §2, §3

human Granzyme B [9] = target: T2, human Granzyme B; experiment: SPR, Biacore 8k+, hGranzyme B captured on SA chip, single cycle kinetics, 1:1 model; Compound 41a, observed m/z 912.9
Experimental: as §1, §2, §3

T2 sequence (P10144 21-247 limits assumed): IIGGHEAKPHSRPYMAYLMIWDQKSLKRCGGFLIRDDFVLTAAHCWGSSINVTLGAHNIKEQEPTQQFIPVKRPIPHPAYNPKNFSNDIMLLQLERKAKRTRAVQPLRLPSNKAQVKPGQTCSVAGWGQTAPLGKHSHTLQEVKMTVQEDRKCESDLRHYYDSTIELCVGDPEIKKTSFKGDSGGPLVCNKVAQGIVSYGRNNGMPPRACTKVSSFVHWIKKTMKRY
T1 sequence (P10144 21-247): as the sequence (P10144 21-247 limits assumed) above

Molecule: C[C@@H]1NC(=O)[C@H](CO)NC(=O)[C@H](CCC(N)=O)NC(=O)[C@H](CC(=O)O)NC(=O)[C@H](CCC(=O)O)NC(=O)[C@H](Cc2ccccc2)NC(=O)[C@H](CC(N)=O)NC(=O)[C@H](Cc2ccccc2)NC(=O)CSC[C@@H](C(=O)NCC(=O)NCC(=O)N[C@@H](CCCCNC(=O)CCOCCOCCC(=O)NCCCC[C@H](NC(=O)CNC(=O)CNC(=O)[C@@H]2CSCC(=O)N[C@@H](Cc3ccccc3)C(=O)N[C@@H](CC(N)=O)C(=O)N[C@@H](Cc3ccccc3)C(=O)N[C@@H](CCC(=O)O)C(=O)N[C@@H](CC(=O)O)C(=O)N[C@@H](CCC(N)=O)C(=O)N[C@@H](CO)C(=O)N[C@@H](C)C(=O)N[C@@H](CC(=O)O)C(=O)N[C@@H]([C@@H](C)O)C(=O)N[C@@H](Cc3c[nH]c4ccccc34)C(=O)N[C@@H](CCC(N)=O)C(=O)N3CCC[C@H]3C(=O)N2)C(N)=O)C(N)=O)NC(=O)[C@@H]2CCCN2C(=O)[C@H](CCC(N)=O)NC(=O)[C@H](Cc2c[nH]c3ccccc23)NC(=O)[C@H]([C@@H](C)O)NC(=O)[C@H](CC(=O)O)NC1=O [Compound 5a, *F.N.F.E.D.Q.S.A.D.T.W.Q.P.*C.G.G.K.NH2)-PEG2-(*F.N.F.E.D.Q.S.A.D.T.W.Q.P.*C.G.G.K.NH2)] (I: {CH2CO}-FNFEDQSADTWQPCGGK-NH2 / II: {CH2CO}-FNFEDQSADTWQPCGGK-NH2; linker I:17-II:17 via X2; thioether I:N-I:14, II:N-II:14)
Kd [1]: < 0.3 nM
IC50 (Human Granzyme B [2]): < 8 nM

Molecule: C[C@@H](O)[C@@H]1NC(=O)[C@H](CC(=O)O)NC(=O)[C@@H]2C[C@@H](F)CN2C(=O)[C@H](CO)NC(=O)[C@H](CCC(N)=O)NC(=O)[C@H](CC(=O)O)NC(=O)[C@H](CCC(=O)O)NC(=O)[C@H](Cc2ccccc2)NC(=O)[C@H](CC(N)=O)NC(=O)[C@H](Cc2ccccc2)NC(=O)CSC[C@@H](C(=O)NCC(=O)NCC(=O)N[C@@H](CCCCNC(=S)Nc2ccc(CC3CN(CC(=O)O)CCN(CC(=O)O)CCN3CC(=O)O)cc2)C(N)=O)NC(=O)[C@@H]2CCCN2C(=O)[C@H](CCC(N)=O)NC(=O)[C@H](Cc2c[nH]c3ccccc23)NC1=O (stereo partly shown) [Compound 19a, *F.N.F.E.D.Q.S.Prot4F.D.T.W.Q.P.*C.G.G.K(^68Ga-NOTA-1).NH2, metal not drawn]
route of clearance [3]: primarily cleared through renal excretion
tissues of highest uptake [3]: highest uptake observed in urine/urinary bladder and kidney

Molecule: *F.N.F.E.D.Q.S.A.D.T.W.Q.P.*C.G.G.K(^18F-AlF-NOTA-1).NH2 [Compound 11a]
route of excretion [3]: primarily excreted through renal route
blood pool clearance ([3]; iv): rapid blood pool clearance
uptake in kidneys ([3]; iv): high uptake in kidneys within first 20 minutes of injection
uptake (SUVmean) in lung, liver and bone, GvHD model versus NOG control (Human Granzyme B [4]; 18F-labeled peptides, i.v., mice, static PET/CT 1 h after injection): significantly higher uptake in lung, liver, and bone in GvHD model than NOG control
kidney and bladder uptake difference (Human Granzyme B [4]; in vivo): No significant difference was observed between the kidney and bladder
primary tissue of excretion (Human Granzyme B [4]; in vivo): kidney was the primary tissue through which the peptide was excreted

B1: Compound 38a (peptide)
peptide: {CH2CO}-FNFEDQS[Pro(trans-4-F)]DTWQPCG-NH2
modifications: thioether N-14
SMILES: C[C@@H](O)[C@@H]1NC(=O)[C@H](CC(=O)O)NC(=O)[C@@H]2C[C@@H](F)CN2C(=O)[C@H](CO)NC(=O)[C@H](CCC(N)=O)NC(=O)[C@H](CC(=O)O)NC(=O)[C@H](CCC(=O)O)NC(=O)[C@H](Cc2ccccc2)NC(=O)[C@H](CC(N)=O)NC(=O)[C@H](Cc2ccccc2)NC(=O)CSC[C@@H](C(=O)NCC(N)=O)NC(=O)[C@@H]2CCCN2C(=O)[C@H](CCC(N)=O)NC(=O)[C@H](Cc2c[nH]c3ccccc23)NC1=O
Kd (human Granzyme B [5]): 0.7 nM
Human Granzyme B IC50 (fluorogenic substrate enzyme inhibition assay) (human Granzyme B [6]): < 8 nM

B2: Compound 25a (peptide)
peptide: {CH2CO}-FNFEDQSPDTWQPCG-NH2
modifications: thioether N-14
SMILES: C[C@@H](O)[C@@H]1NC(=O)[C@H](CC(=O)O)NC(=O)[C@@H]2CCCN2C(=O)[C@H](CO)NC(=O)[C@H](CCC(N)=O)NC(=O)[C@H](CC(=O)O)NC(=O)[C@H](CCC(=O)O)NC(=O)[C@H](Cc2ccccc2)NC(=O)[C@H](CC(N)=O)NC(=O)[C@H](Cc2ccccc2)NC(=O)CSC[C@@H](C(=O)NCC(N)=O)NC(=O)[C@@H]2CCCN2C(=O)[C@H](CCC(N)=O)NC(=O)[C@H](Cc2c[nH]c3ccccc23)NC1=O
Kd (human Granzyme B [8]): 2.8 nM
Human Granzyme B IC50 (fluorogenic substrate enzyme inhibition assay) (human Granzyme B [6]): < 8 nM

Next, values leading:

Kd (human Granzyme B [7]): 1.8 nM
Molecule: {CH2CO}-FN[Phe(4-F)]EDQSPDTWQPCG-NH2 (thioether N-14) [Compound 40a]

Kd (human Granzyme B [9]): 2.5 nM
Molecule: {CH2CO}-FNFEDQSPDTWQ[Pro(4S-Me)]CG-NH2 (thioether N-14) [Compound 41a]
